Experimental data published in article doi:10.1101/2024.01.29.577855.

Molecular target: recombinant yeast TBC-DEG (TBCD, TBCE, Arl2) (yeast) (UniProt P40987)
Experiment: SEC

recombinant yeast TBC-DEG (TBCD, TBCE, Arl2) (yeast), sequence (P40987 whole entry, chain 1 of 3): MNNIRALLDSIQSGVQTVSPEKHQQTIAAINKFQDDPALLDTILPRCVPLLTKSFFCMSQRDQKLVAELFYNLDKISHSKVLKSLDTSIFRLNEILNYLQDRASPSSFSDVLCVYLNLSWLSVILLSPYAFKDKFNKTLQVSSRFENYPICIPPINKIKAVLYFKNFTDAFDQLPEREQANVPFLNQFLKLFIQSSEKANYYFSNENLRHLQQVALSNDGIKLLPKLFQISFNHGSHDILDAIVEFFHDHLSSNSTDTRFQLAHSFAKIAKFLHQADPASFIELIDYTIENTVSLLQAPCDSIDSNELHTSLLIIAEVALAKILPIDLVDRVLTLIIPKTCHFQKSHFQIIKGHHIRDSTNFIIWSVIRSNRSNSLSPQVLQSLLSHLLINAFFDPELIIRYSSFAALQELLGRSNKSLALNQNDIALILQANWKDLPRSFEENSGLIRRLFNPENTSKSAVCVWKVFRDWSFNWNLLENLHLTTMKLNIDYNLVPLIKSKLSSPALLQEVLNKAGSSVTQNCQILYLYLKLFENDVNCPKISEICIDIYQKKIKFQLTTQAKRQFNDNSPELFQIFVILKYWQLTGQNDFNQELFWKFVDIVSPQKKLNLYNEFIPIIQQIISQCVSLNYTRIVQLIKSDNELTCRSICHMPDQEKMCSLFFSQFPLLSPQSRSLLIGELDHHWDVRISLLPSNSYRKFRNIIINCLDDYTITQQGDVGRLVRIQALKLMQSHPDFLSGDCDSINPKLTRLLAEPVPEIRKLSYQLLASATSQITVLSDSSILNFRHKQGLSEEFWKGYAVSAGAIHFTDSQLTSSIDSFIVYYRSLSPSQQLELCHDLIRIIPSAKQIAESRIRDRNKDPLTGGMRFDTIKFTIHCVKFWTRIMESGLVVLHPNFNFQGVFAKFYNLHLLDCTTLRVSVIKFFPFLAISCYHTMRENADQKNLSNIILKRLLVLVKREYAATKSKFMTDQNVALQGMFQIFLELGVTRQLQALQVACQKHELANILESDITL
recombinant yeast TBC-DEG (TBCD, TBCE, Arl2) (yeast), sequence (P39937 whole entry, chain 2 of 3, further chain): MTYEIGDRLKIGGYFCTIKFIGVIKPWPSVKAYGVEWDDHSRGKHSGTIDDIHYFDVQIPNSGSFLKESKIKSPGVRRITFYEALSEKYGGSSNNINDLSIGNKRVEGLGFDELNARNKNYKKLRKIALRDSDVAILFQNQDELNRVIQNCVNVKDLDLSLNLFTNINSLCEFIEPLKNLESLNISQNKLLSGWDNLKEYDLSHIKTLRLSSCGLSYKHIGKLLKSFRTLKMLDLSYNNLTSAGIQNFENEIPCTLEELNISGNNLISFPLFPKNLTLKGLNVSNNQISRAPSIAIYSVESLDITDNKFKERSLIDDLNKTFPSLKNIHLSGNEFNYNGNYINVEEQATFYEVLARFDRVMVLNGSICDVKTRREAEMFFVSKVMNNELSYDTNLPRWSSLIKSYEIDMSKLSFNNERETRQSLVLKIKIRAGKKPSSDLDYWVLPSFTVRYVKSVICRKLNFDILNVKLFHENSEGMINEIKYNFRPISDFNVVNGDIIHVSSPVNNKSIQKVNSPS
recombinant yeast TBC-DEG (TBCD, TBCE, Arl2) (yeast), sequence (P39110 whole entry, chain 3 of 3, further chain): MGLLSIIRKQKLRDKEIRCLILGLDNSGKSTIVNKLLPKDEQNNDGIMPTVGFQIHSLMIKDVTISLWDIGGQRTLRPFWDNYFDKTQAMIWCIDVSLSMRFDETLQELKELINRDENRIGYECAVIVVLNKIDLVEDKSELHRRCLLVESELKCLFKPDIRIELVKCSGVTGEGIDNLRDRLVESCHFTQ

- stoichiometry N: 1
Substance: porcine brain αβ-tubulin heterodimer (from UniProt P02550 1-451; P02554 1-445) (complex)
